According to PMC2914609 (Nanomedicine (London, England), 2010):

Target: the molecule itself
Assay: SEC

B1: Phage fusion 55-mer coat protein (pVIII coat fusion protein bearing the MCF-7-specific peptide DMPGTVLP) (designed binder)
chain: ADMPGTVLPDPAKAAFDSLQASATEYIGYAWAMVVVIVGATIGIKLFKKFTSKAS
stoichiometry N: 8
